No end group written: not given here.
Molecular target: CY5-CAS9:sgRNA complex (1:1 molar ratio) (S. pyogenes), Q99ZW2
Assay: fluorescence titration; 5 nM CY5-CAS9:sgRNA (1:1) titrated with peptide, quadratic fit
Settings: remark: other sources report otherwise

CY5-CAS9:sgRNA complex (1:1 molar ratio) (S. pyogenes), Q99ZW2, sequence (Q99ZW2 whole entry, one chain of several): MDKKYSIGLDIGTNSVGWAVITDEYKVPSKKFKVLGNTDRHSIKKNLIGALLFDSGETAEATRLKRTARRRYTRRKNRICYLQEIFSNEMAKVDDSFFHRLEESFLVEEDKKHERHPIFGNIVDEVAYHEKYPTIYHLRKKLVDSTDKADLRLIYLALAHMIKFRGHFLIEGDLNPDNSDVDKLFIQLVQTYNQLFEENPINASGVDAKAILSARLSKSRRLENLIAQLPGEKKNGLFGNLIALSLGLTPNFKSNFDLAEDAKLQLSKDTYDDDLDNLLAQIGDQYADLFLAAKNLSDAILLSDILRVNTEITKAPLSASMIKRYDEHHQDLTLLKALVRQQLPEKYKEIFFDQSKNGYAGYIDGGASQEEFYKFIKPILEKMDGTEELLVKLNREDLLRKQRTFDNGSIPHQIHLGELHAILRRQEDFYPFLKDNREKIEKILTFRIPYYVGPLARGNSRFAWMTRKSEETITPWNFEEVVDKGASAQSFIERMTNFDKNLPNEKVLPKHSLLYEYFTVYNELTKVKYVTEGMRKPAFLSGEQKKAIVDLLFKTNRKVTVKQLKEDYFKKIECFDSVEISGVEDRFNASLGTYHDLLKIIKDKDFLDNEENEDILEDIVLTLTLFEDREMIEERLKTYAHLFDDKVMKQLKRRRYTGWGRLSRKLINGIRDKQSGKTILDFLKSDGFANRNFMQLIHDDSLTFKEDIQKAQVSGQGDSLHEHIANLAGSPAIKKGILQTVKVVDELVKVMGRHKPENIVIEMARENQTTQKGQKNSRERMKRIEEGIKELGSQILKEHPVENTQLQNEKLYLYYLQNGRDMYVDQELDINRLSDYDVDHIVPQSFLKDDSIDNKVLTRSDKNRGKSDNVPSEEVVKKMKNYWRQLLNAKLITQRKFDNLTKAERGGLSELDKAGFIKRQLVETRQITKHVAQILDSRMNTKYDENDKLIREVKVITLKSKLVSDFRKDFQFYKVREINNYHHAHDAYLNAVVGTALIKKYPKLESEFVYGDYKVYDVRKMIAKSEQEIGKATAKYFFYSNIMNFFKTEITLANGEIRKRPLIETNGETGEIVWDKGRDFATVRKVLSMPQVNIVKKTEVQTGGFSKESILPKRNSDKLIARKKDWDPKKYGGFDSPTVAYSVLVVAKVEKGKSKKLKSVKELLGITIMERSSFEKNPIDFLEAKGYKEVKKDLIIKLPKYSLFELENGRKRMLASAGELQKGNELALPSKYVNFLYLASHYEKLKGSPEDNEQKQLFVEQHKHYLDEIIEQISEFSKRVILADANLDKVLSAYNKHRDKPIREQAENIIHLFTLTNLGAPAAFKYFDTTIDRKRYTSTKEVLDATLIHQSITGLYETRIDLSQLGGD

GLWRALWRLLRSLWRLLWKV (also: acetate salt) [CADY]
Kd: 21 nM

— EP3464323B1
